Where two headings read alike, the source gives them in different places.
Legend:
[1] = molecular target: T1, recombinant hIL4R-his (human IL-4R extracellular domain with C-terminal His tag) (human (Homo sapiens), UniProt P24394 26-232); test: solid phase phage display screening with hIL4R-his as antigen
T1 construct: The tag was added at the C-terminus; The protein was expressed in HEK293 cells; also called huIL4R
T1 sequence: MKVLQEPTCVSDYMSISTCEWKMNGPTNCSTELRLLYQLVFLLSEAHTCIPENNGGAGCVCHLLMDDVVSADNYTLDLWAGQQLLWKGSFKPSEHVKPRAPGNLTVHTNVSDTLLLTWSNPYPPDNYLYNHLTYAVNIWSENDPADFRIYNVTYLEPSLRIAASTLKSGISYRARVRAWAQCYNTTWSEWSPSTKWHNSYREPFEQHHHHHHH

[2] = molecular target: T2, coated recombinant IL4R antigen (Example 3.2) (human (Homo sapiens), UniProt P24394 26-232); test: competition ELISA: phage-scFv at a fixed titer on coated recombinant IL4R, against a gradient of recombinant IL4; detected with HRP-anti-M13
T2 sequence: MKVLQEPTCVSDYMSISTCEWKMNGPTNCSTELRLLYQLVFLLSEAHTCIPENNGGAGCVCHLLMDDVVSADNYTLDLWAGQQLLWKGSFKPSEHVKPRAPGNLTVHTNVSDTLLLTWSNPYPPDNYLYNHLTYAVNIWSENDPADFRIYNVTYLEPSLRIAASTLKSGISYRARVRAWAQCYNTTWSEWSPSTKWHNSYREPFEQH

[3] = molecular target: T3, human IL-4R on cells (HEK-Blue IL-4/IL-13 cells, TF-1 cells, human PBMCs) (human, UniProt P24394 26-825); test: cell-based or functional assay
T3 sequence (looked up): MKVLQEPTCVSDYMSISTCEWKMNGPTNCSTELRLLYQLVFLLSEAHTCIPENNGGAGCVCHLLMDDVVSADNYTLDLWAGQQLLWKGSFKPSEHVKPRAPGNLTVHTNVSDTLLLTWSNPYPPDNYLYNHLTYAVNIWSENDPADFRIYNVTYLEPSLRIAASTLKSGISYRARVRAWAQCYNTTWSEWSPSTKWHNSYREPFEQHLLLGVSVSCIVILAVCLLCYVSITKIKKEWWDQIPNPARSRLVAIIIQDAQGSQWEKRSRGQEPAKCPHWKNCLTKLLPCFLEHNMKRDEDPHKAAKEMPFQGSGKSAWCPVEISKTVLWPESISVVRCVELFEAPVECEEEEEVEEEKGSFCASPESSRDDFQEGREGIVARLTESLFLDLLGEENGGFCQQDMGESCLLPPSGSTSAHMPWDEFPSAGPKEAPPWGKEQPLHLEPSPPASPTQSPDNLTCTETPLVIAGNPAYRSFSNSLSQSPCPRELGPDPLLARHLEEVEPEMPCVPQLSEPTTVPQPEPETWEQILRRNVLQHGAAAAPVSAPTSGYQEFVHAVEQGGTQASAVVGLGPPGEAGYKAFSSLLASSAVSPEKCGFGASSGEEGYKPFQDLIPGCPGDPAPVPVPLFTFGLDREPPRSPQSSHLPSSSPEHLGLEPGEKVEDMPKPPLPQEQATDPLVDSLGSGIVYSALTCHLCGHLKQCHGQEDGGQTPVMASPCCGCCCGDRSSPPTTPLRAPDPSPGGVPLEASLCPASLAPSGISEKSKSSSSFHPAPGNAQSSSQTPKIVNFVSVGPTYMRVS

[4] = molecular target: T3, human IL-4R on cells (HEK-Blue …); test: cell-based or functional assay; remark: listed apart in the source
[5] = molecular target: T3, human IL-4R on cells (HEK-Blue …); test: cell-based or functional assay; remark: listed apart in the source
[6] = molecular target: T4, mmIL4R-mFc (Macaca mulatta IL-4R extracellular domain fused to murine IgG2a Fc) (Macaca mulatta); test: SPR Biacore X100, antibody captured, mmIL4R-mFc as analyte
T4 chain: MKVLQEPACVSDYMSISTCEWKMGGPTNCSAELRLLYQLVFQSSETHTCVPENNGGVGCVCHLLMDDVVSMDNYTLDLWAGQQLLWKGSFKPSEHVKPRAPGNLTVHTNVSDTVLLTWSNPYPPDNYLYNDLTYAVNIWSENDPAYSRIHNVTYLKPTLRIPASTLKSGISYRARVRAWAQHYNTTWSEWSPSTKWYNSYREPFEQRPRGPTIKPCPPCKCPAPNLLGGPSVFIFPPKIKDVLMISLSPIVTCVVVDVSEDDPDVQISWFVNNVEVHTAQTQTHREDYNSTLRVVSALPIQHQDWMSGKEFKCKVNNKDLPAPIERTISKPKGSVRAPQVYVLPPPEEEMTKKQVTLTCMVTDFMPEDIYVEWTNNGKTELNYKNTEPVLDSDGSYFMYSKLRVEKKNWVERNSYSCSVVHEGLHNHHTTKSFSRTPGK
Experimental: (§1) The affinity of each anti-IL4R IgG4 chimeric antibody was determined using Biacore X100. Amino coupling kits, human antibody capture kits, CM5 chips, 1× HBS-EP (pH 7.4) and all reagents used in this assay were purchased from GE Healthcare. According to the instructions in the kits, an antibody against the human Fc region was coupled to the surface of the CM5 chip using an amino coupling method, and antibody proteins were diluted to appropriate concentrations to ensure that about 100 RU of the antibodies was captured by the antibody against the human Fc. IL4R-his was set to a series of concentration gradients (100 nm, 33.3 nm, 11.1 nm, 3.7 nm, 1.23 nm) and flew through the surface of the stationary phase.
Similarly, anti-IL4R monoclonal antibodies were captured and mmIL4R-mFc was set to a series of concentration gradient (50 nm, 16.7 nm, 5.56 nm, […], 0.62 nm).

[7] = molecular target: T1, recombinant hIL4R-his (human IL-4R …); test: SPR Biacore X100, antibody captured by anti-human Fc, IL4R-his as analyte, 25 C
Experimental: as §1

[8] = molecular target: T5, IL4R-mFc (human IL-4R extracellular domain fused to murine IgG2a Fc) (human (Homo sapiens)); test: blocking ELISA: antibody gradient with IL4-his at a fixed concentration on coated IL4R-mFc; bound IL4-his detected with HRP-mouse-anti-his IgG
T5 construct: also called antigen IL4R-mFc
Experimental: (§2) 96 well plates were coated with antigen IL4R-mFc (3 μg/ml, 100 μI/well) overnight at 4° C.

[9] = molecular target: T3, human IL-4R on cells (HEK-Blue …); test: cell-based or functional assay; remark: listed apart in the source
[10] = molecular target: T3, human IL-4R on cells (HEK-Blue …); test: cell-based or functional assay; remark: listed apart in the source
[11] = molecular target: T1, recombinant hIL4R-his (human IL-4R …); test: SPR Biacore X100, antibody captured by anti-human Fc, IL4R-his as analyte, 25 C; remark: listed apart in the source
Experimental: as §1

[12] = molecular target: T5, IL4R-mFc (human IL-4R extracellular …); test: blocking ELISA: antibody gradient with IL4-his at a fixed concentration on coated IL4R-mFc; bound IL4-his detected with HRP-mouse-anti-his IgG; remark: listed apart in the source
Experimental: as §2

Binder	binding result [1]	binding result [2]	Kd [6] [nM]	koff [6] [s⁻¹]	kon [6] [M⁻¹ s⁻¹]	Kd [7] [nM]	koff [7] [s⁻¹]	kon [7] [M⁻¹ s⁻¹]	IC50 (read off the curve) [8] [nM]	further results
S1H9 phage-scFv (scFv, also called clone S1H9) scFv: EVQLVESGGGLVQPGGSLRLSCAASGFTFSNYSMRWVRQAPGKGLEWVSFISASGSTKYYADSVKGRFTISRDNSKNTLYLQMNSLRAEDTAVYYCARKPTAPRSSALDYWGQGTLVTVSSGGGGSGGGGSGGGGSDIQMTQSPSSLSASVGDRVTITCRASQGVNNYLNWYQQKPGKAPKLLIYGASSRASGVPSRFSGSGSGTDFTLTISSLQPEDFATYYCQQRLSVPLTFGQGTKVEIK	binds	binds								
S2C2 phage-scFv (scFv, also called clone S2C2) scFv: QVQLQQSGPGLVKPSQTLSLTCAISGDSVSSNNDAWNWIRQSPSRGLEWLGRTYYRSKWYNDYAVSLKGRITINPDTSKNQFSLHLNSVTPEDTAVYYCAKRDSSVGVGAMDVWSQGTTVTVSSGGGGSGGGGSGGGGSVIWMTQSPSSLSASVGDRVTITCRSSQYIGKYLNWYQYKKGQVPKLLIYAASSLRSGVPSRFSGRGSATEFTLTISNLQREDFATYYCQKYNAVPLTFGQGTKLEIK	binds	binds								
L28F8-IgG4 (antibody, V domains shown, also called S1E6 light chain mutant L28F8) VH: EVQLVESGGGLVQPGGSLRLSCAVSGFTFSSYAMSWVRQAPGKGLEWVSSITGGGGGIYYADSVKGRFTISRDNSKNTVYLQMNSLRAEDTAVYYCAKDRISITIRPRYFGLDFWGQGTTVTVSS VL: DIVMTQSPLSLPVTPGEPASISCRSSQNVVYGNGYNYLDWYLQKSGQSPQLLIYLGTNVAAGVPDRFSGSGSGTDFTLKISRVEAEDVGFYYCMQSLQAPYTFGQGTKLEIKR			6.93	0.00519	748000	0.42	0.000144	342000	~10	IC50 values in inhibition of IL-4 (SEAP, HEK-Blue IL-4/IL-13 cells) [3]: 0.055 nM; IC50 values in inhibition of IL-13 (SEAP, HEK-Blue IL-4/IL-13 cells) [4]: 0.0121 nM; IC50 values in inhibition of IL-4 (IL-4 induced proliferation of TF-1 cells, CellTiter-Glo) [5]: 0.124 nM
L10B2-IgG4 (antibody, V domains shown, also called S1E6 light chain mutant L10B2) VH: EVQLVESGGGLVQPGGSLRLSCAVSGFTFSSYAMSWVRQAPGKGLEWVSSITGGGGGIYYADSVKGRFTISRDNSKNTVYLQMNSLRAEDTAVYYCAKDRISITIRPRYFGLDFWGQGTTVTVSS VL: DIVMTQSPLSLPVTPGEPASISCRSSHNLLYSNGYNYLDWYLQKPGQSPQLLIYLGSNRAYGVPDRFSGSGSGTDFTLKISRVEAEDVGVYHCMQALQSPYTFGQGTKVDIKR										IC50 values in inhibition of IL-4 (SEAP, HEK-Blue IL-4/IL-13 cells) [9]: 0.207 nM; IC50 values in inhibition of IL-13 (SEAP, HEK-Blue IL-4/IL-13 cells) [10]: 0.0131 nM; Kd [11]: 0.443 nM; koff [11]: 0.000152 s⁻¹; kon [11]: 343000 M⁻¹ s⁻¹; IC50 (read off the curve) [12]: ~7 nM
L28G5-IgG4 (antibody, V domains shown, also called S1E6 light chain mutant L28G5) VH: EVQLVESGGGLVQPGGSLRLSCAVSGFTFSSYAMSWVRQAPGKGLEWVSSITGGGGGIYYADSVKGRFTISRDNSKNTVYLQMNSLRAEDTAVYYCAKDRISITIRPRYFGLDFWGQGTTVTVSS VL: DIVMTQSPLSLPVTPGEPASISCRSSRNVIYGNGYNYLDWYLQKSGQSPQLLIYLGNNVAAGVPDRFSGSGSGTDFTLKISRVEAEDVGFYYCMQSLQAPYTFGQGTKLEIKR			10.4	0.00709	684000	0.465	0.000134	289000	~8	IC50 values in inhibition of IL-4 (SEAP, HEK-Blue IL-4/IL-13 cells) [3]: 0.0484 nM; IC50 values in inhibition of IL-13 (SEAP, HEK-Blue IL-4/IL-13 cells) [4]: 0.0115 nM; IC50 values in inhibition of IL-4 (IL-4 induced proliferation of TF-1 cells, CellTiter-Glo) [5]: 0.118 nM
S1E6-IgG4 (antibody, V domains shown, also called monoclonal antibody S1E6) VH: EVQLVESGGGLVQPGGSLRLSCAVSGFTFSSYAMSWVRQAPGKGLEWVSSITGGGGGIYYADSVKGRFTISRDNSKNTVYLQMNSLRAEDTAVYYCAKDRISITIRPRYFGLDFWGQGTTVTVSS VL: DIVMTQSPLSLPVTPGEPASISCRSSRSVLYGNGYNYLDWYLQKSGQSPQLLIYLGTNVAAGVPDRFSGSGSGTDFTLKISRVEAEDVGFYYCMQSLRTPYTFGQGTKLEIKR			9.3	0.0049	527000	2.84	0.000709	249000	~20	Kd [11]: 2.95 nM; koff [11]: 0.000923 s⁻¹; kon [11]: 312000 M⁻¹ s⁻¹; IC50 (read off the curve) [12]: ~20 nM
S1E6 phage-scFv (scFv, also called clone S1E6; S1E6 single chain antibody) scFv: EVQLVESGGGLVQPGGSLRLSCAVSGFTFSSYAMSWVRQAPGKGLEWVSSITGGGGGIYYADSVKGRFTISRDNSKNTVYLQMNSLRAEDTAVYYCAKDRISITIRPRYFGLDFWGQGTTVTVSSGGGGSGGGGSGGGGSDIVMTQSPLSLPVTPGEPASISCRSSRSVLYGNGYNYLDWYLQKSGQSPQLLIYLGTNVAAGVPDRFSGSGSGTDFTLKISRVEAEDVGFYYCMQSLRTPYTFGQGTKLEIK	binds	binds								

Reference: US20220081485A1 (BEIJING WISDOMAB BIOTECHNOLOGY, published 2022)
